# Laboratory results as given in the DeepSol protein solubility set.
# Test: soluble on expression in E. coli; label from the status in PepcDB or PDB records
row,Sequence,soluble on expression in E. coli
1,MHHPPVEELELIDSPAALEWAREWSQATQERWSNDALQRSIREALDTDARIPYVTRRGEYLYNFWRDRDHPRGVWRRTTLESFTSDSPQWQVLIDVDRLAASEEESWVWKGAHVRPHHFDRALIRLSRGGADAVEIREFDLDSGSFVEDHAFAVPEAKTQVCWVDRDTVLVGTDMGAGSLTESGYPARVHVWRRGTNLAEAEEFFCGLSSDLAVSAWAETVPGFERLFVRRALDFYRSRTFIQRDGHLQIIEVPEDCTVVVHREWMYVLPREEYAGIASGGVGAILFEDF,not soluble
2,MGSDKIHHHHHHMSHDTVSPGLSLREIRAILAVAEQRGFSSAARRLNISQSSLSRTIHRAESVLAIRLFQRGWGGAEPTPEGEIVRQHCTQVMAELLHERDALMAAGLTRLPLPLDLRWRDLACVAAVVHTGKTTTAAKWLRTSQSSVSRTLGAISVRLGSPLFQRSGEGLRAEPLAERLVALRDRMCARMQPLQERLGHLAGEVTGRLAVGMTPFCEQERVAQAFGDLLVAYPQLRLSAVTGSYVMLTDALRCGEIDLVVGLLRELGEDDELAELPLAEEAITVLARSDHPCAVRSVSMEDLARQTWIVAPAGTPIRAYFERLFLGMGKTPPVQTCEIVTFHLAESMVRESQSLALLLYSPRKVRELPPGLVRVPVTLPDNRRHIGVTYRRDAGLSFTQRQFIDGLAKRFASDDDAEGNAP,not soluble
3,GAMESHPHIQLLKSNRELLVTHIRNTQCLVDNLLKNDYFSAEDAEIVCACPTQPDKVRKILDLVQSKGEEVSEFFLYLLQQLADAYVDLRPWLLEIGFSPSLLTQSKVVVNTDPVSRYTQQLRHHLG,soluble
4,MGVETLNKVFKIAKKFYTDIRYYSFQLACIHLGETFSRYTKFNLADKYYLKKDKIVLNYLRTRYTNSPKQDVYGGVPKIYQPIWVFWYQGEEQMPKLVSACLKSVRNNANGHEVILISKENMNNYIEIPDVIRDRVESKKISMAQYSDIIRMCLLAEYGGLWIDATVLVTQLIPQYIFELPLFTIKNSPNQEDPLYFISVSHLRWTTYVMGGEPNNALFTFVRDLLIEYNSVENALIDYLLIDYAIELAIEKNSSISDDMIKIPINNQLKEEFVHRLFSVYPDCKTKELLQSGTIFFKLSYKKVAPKVIEKNNYQLLVDGDLCQAYNMGNLEHHHHHH,not soluble
5,MAHHHHHHMSSGRRDIIFFGSIAVSILGHEVHDEAVAPQLERQNARIKLHTTARAPYAKTEEVFGLDATSPLYEIHSADFKASPTSSLTPQRGAPHPRHHRQKAAFLPVMLKLAQDAAVEEVPSIEDQDGALLQLDSPTNNVDPAPSYASASVRIEVDMSRSGGDATPVGTKEVFLPSLNYLAIRDMCTVVRIPVWSNTIQRSETGDVDVAELDRRSPQPQRAGDDNSSSSSGVLGGVRDRNSRGDAVSGVALSVYAMVRVISLAEKVRLALEADDAVRCLLGLPDPVPGVSLALTQRGDAPYGAMPLTELYKHHRQFFGYYSNTIIKHSNVVTQRLAEAPRQREADASFPHRWNTLTVVDLRPALLGEDAFAPLLVTLAYCANLRALYADGNHLGDLTCARLSALFRRHRYLARVSLSKNTIHEAGGEHLLRLVRNNLRITSMPCQGNYFSDALRSRIEEVARRNASVIAQDPLNIFSASYDYLTDLSSLPNSLQQQGLRTWAMLSAAPVGDVDVMVRNFTTSTQRTLGDSPVVAMQRAKTALRARESFSLIPPAALAPFLNEIMRTVSVGVSRVLPDPLVRSLFSDMETVVAREQEQVEAQRRDELAGGSRDASLLPPEVCDAVGGAYTPPVDSETMYARSFVRIVVAALRGVALGTPWAEIAKVLEGIGRVHRDLGVMPEDYWLAVHIFMTSLRISCGAECYDADSASSFLGLLALAVRTAVGTDTVLQ,not soluble
6,GSFEEDLSQKNTWWSRGIYELLGYTPFEVEPRAELFFQHIKEPHRTLIKEHYLHLNQSQETQYISEDYEILTKKGEGRWLNSSVKLIRDEKGTLLKAQGAILDVT,not soluble
7,MVARSPKGCQEKPVASGKSGIMPSSGRGFRALAPRTLAPFQGAFGGGPSSPGGPHEGGPTPWPTRWRSGSSASGARAGVTPRTLRRIFLEEVERELGPEKARLLAKQTLPFEEIFVVEGRKQRPFSKGLLTRSLEDAGFSLREAHELAKAVERRLRLEGVRRIPAKRLEKVVAEEARRLYGPEAGERYRARLLYAGELFVEEAPGAPRVPFSKGILAQSLMAIGLSPDRAFRLAREMEVALHREGVQVIRRDELRRRVHQALLREAGEEMARRYLILRSLRKQPRPVHILIGGVTGVGKSVLASALAYRLGITHIVPSDAVREVFRVSLSKDLLPTLHLSTFEAWRALSPGLGLEGESYEVQVMRGFLDQVAKVAVGLKAIQERSALEGTSIVLEGVHVVPRFLQHPYQDRVFTIPMLVAVQDENLHRDRFLLRDRETGHARPKERYLQHFEEIRLIQNHLLRWAREEGIPVIPGEDLDEGIEKALEVLVAYLEAQGQRLEEAHA,soluble
8,MADLEAVLADVSYLMAMEKSRSQPAARASKRIVLPDPSVRSIMQKFLEKSGDMKFDKIFNQKLGFLLLKDYAENVSESPCPQIKFYEAIKEYEKMETPDERLTKAREIYDHHIMVEMLAHAHNYSKESLQHVQYHLLKQNVPPDLFHRYVLEICDQLRGDIFQRFLESDKFTRFCQWKNLELNMQLTMNDFSVHRIIGRGGFGEVYGCRKADTGKMYAMKCLDKKRIKMKQGETLALNERIMLSLVSTGQDCPFIVCMTYAFQSPDKLCFILDLMNGGDLHYHLSQHGVFTEQEMIFYASEVILGLEHMHNRFVVYRDLKPANILLDENGHVRVSDLGLACDYSKKKPHASVGTHGYMAPEVLAKGVAYDSSADWFSLGCMLYKLLKGHSPFRQHKSKDKNEIDKMTLTQDIELPNEGLSKDCRDLLEGLLKRDVPDRLGCRGKGPTEVKEHPFFKDVDWQTVYLRRMTPPLIPPRGEVNAADAFDIGNFDDDEVKGVKLQDGDSDLYKNFNIVISERWQNEIAETIFEVVNQDADKAESKKRSKQKIKVAVEEKDSDVIVHGYIKKLGGPFTSAWQTKYGKLYPSRLELYPESLTAKPELVFMDQIEDVCAEMQTIKGETAIIVKLRDGFKEPKICLTNSDEISLKEWHTSLRTAHKVSQELLQRMGRKAIKIYGVNHDPMLSESERPGSVTRAFLNRASSVDSGV,not soluble
9,MGSDKIHHHHHHMTSPNTTQGAADPIQSYLNQGLRNYWYPVAPSWQVGDAPVGITRLGDQIVLWRDKEGKVRALEDRCPHRGARLSLGWNLGGSVACWYHGIEVDGGGTVTKVPAVSNCPLEGQKCVKSYPVEEHAGAIFLWFGDDAHKEPAPLVLPEELVGEEYASFLCMSHWKCNYQYAIDNVMDPMHGAYLHATSHSMAEGDKQADMRVRKTETGLMFEKIGQRDVNFDWVELGETGCLWMRLAIPYKKKFGPGGNFGIIGFAVPVDEDNCQVYFWRTRKVQGWQRDAWRFMYRNRLEGLHWAVLEQDRYVLESMAPNARDHEFLYQHDVGMTRVRRMLRQRAQQHFADLDAHRAQAVSATPAAAEAGHSHA,not soluble
10,MSLRISMATFFPQSVTALDSPLYGRSFADDKMRELFSAQSFISRCVETEVALARAQARLGIIPEDAAAGITAAARTFAPEMERLRDDTEIVGYPILPLVEQLSAHAGEAGKYLHWGATTQDIMDTATVLQIRDGLALISRRIESVRKALAALARNHRDTPMAGRTHLQHALPVTFGYKAAVWLSAFDRHAARLEEISPRVLVVEFSGASGTLASLGTRGLDVQRELARELNLGVPSITWHSARDAVAETVQFLALVSGSLGKLAMDISIMMTTELGEVAEPFVRHRGASSTMPQKQNPVSCELILAGARIVRNHATSMLDAMIHDFERATGPWHLEWSAVPEGFAVASGILYQAEFMLGGLQVFPDRMRENLDHSRGLIVAEAVMMALAPHTGRKEAHDIVYLGCRRAVEDKTGLFEVLRTMPEVAKPLGEEALRDLTDPRNYLGSAGAMVDNVLGGREGHHHHHH,soluble
11,MMKTFHWKVDPDMGVDSEPQVSVVRFGDGYEQRRASGINNDLKKYSVTIRVDREDGPGLEGFLSQHNGVKAFLWTPPYGYRQIKVVCRKWSVKAGLLKTTFTATFEQVIS,not soluble
12,MGSSHHHHHHSSGRENLYFQGHMTRTNLITGFLGSGKTTSILHLLAHKDPNEKWAVLVNEFGEVGIDGALLADSGALLKEIPGGCMCCVNGLPMQVGLNTLLRQGKPDRLLIEPTGLGHPKQILDLLTAPVYEPWIDLRATLCILDPRLLLDEKSASNENFRDQLAAADIIVANKSDRTTPESEQALQRWWQQNGGDRQLIHSEHGKVDGHLLDLPRRNLAELPASAAHSHQHVVKKGLAALSLPEHQRWRRSLNSGQGYQACGWIFDADTVFDTIGILEWARLAPVERVKGVLRIPEGLVRINRQGDDLHIETQNVAPPDSRIELISSSEADWNALQSALLKLRLATTA,soluble
13,MRNIQPRRLVTASGQPIVIRTAWPEDAERIVAFVKAVTAEALYLLTTEAEVTVTEDQQRQWLQKMADDPGKLALLAEHDGEMIGFLDFHNGNKRFRHEREKRLSRPGDRHGVACSAP,not soluble
14,MAHHHHHHMSISIRSTAQRQLARRQPPTTSSSSVSLPRAAFAPASRSASAVEATSESASSSQVPEQQEATPTRILDNARSSSCAAAPPPFSASSDQRSDQINKCIHDTSTLTSKPPPSASSASSRGAAAPSLPPSAPSSTTGAPRSGHDAEPEGLHDAASSTAAPSGAGSSAVANSQRTAASHSLLYSVSRFTEPVKRIILIRNGRSEANEDVRAYVQTPDWRIPLVEEGKREAIAAGRALSELIGDGPVYFYYSPYIRSRQSLRYVLQGFDEARLSGLSHSREWWEDEETAAVASAAAAAESSTLKCATASADEAGSPPLLAPAPSAISTNATSSDAQCCFHRDPSLVLNRGTSNNIIGVREDVRLRDGDIGRYTSADELMHHLVERERYGRFFYRFPFGESGADVCDRVTSFLDAFQRERVEFPMDTSVVIITHGLTMRMLIKRWFYLTVETFHKMKSPPPGSLCTLTRLHHRSCFRLDECCVESMNLPLSLNEFNGYKYRNKQLLGSMSSGAPYM,not soluble
15,MSSPKVGFVSLGRPKALVDSERILTQLRTEGYEVTPEYNDADVVVVNTCGFIDSAKAESLEAIGEAIAENGKVIVTGCMGVEESVIRQVHPSVLAVTGPQQYEEVVRAVHGVAPPRQDHNPYLDLVPPQGVKLTPRHYAYLKISEGCNHRCSFCIIPSMRGDLVSRPVGDVLSEAERLVRAGVKELLVISQDTSAYGVDIKYRSGFWNGRPVKTRMTELCAALSELGVWTRLHYVYPYPHVDEVIGLMADGKVLPYLDIPFQHASPRILRAMKRPAFEDKTLARIKRWREECPDLTLRSTFIVGFPGETEEDFQYLLDWMSEAQLDRVGCFQYSPVEGAPANTLDNPVPDEVKQERWERFMEHQQAISTARLSTRVGREIDVLIDSVDEEGAVGRSSADAPEIDGCVYVDSEQPLKAGDMVRVRVTDSDEYDLWGERIALEHHHHHH,soluble
16,MSLEALKEVAGEAEGEKSAVITHRNADPDAVGAALVVREVLRALRMNPCLYSPEGISRQSKRLLEAVGEEFGPLCSPDENPLIAVVVDAANLSQIAGAESLFRAARLKVVIDHHERGSIHEEADVALVDPGAGSSSELAVKTAVEAGTPLRPSVATAALGGIVYDTGRFLRASKLSFEAAAHLLSMGADYGKVLEAGRQRGRRDRGDLSLRLAKLKAFSRLKIGRACSELLIAVTHIGSFESDVAKSLVDEAADVAVAVAERTSEFRLSVRVSPLALEKGVTARAIASMLAEKFGGEGGGHDEAGMAHIPYTAAFSAEDMAVKAFNLISGRLGWMCVKTLEKGEGGSHHHHHH,soluble
17,APEWTEEDLSQLTRSMVKFPGGTPGRWEKIAHELGRSVTDVTTKAKQLKDSVTCSPGMV,soluble
